Laboratory results from patent publication US8895062B2, “Surface-layer protein coated microspheres and uses thereof” (University of Maryland, Baltimore, priority 2006, dated 2014).
Values joined by “and” are separate entries in the source; they are usually repeats but may differ in a detail not shown here. Identical values can stand only once.

How the values were obtained:
[1] = test system: Caco-2 intestinal epithelial cells; test: IL-8 secretion by Caco-2 cells (Luminex-100); type: cell-based, human; details: 18 hours
Protocol: TNFα (100 ng/ml; dark grey bar) served as a positive control. Following incubation for 18 hours, culture supernatants were analyzed for IL-8 using the Luminex-100 system in duplicate. Data represent mean and standard deviation of three individual experiments.
No peptides (c) and TNFα alone (dark grey bar) served as controls. Following incubation for 18 hours, culture supernatants were analyzed for IL-8 using the Luminex-100 system in duplicate. Data represent mean and standard deviation of three individual experiments.
Subconfluent monolayers of Caco-2 cells were maintained in RPMI 1640 medium (Gibco), supplemented with 10% FBS (Valley Biomedical, Winchester, Va.), 2 mM L-glutamine (Quality Biological, Gaithersburg, Md.), 20 mM HEPES, 1× nonessential amino acids, 1 mM sodium pyruvate and 5% Penicillin/Streptomycin (Sigma) in a humidified incubator at 37° C. with 5% CO2. Caco-2 cells were used between passages 35-42. Caco-2 cells were plated at a density of 4×10^4 cells/cm^2 in a 96-well plate 48 hours before use. The cells were gently washed twice with serum-free medium and incubated for a further 18 hours in serum-free medium containing the peptides at a final concentration of 50 or 100 ug/ml. Human recombinant tumor necrosis factor alpha (Sigma; 100 ng/ml) was included during incubation with the peptides (100 ug/ml) as indicated. The culture supernatant was collected for measurement of IL-8 using the Luminex-100 system (Bio-rad Laboratories).

S. aureus ATCC 29213 = test: Antibacterial activity, 96-well turbidimetric assay, S. aureus; type: cell-based, Staphylococcus aureus
Protocol: (§1) Strains were exposed to the peptides at concentrations varying twofold from 0.12 to 125 μg/ml. (B) Strains were exposed to fixed peptide concentrations (100 ug/ml for E. coli; 50 ug/ml for S. aureus) in the absence or presence of the indicated concentrations of sodium chloride. Each curve is the mean of three separate experiments. Points scored as zero survival could not be plotted.
(§2) The antibacterial activity of HD-5 and HD-5Abu against E. coli ATCC 25922 and S. aureus ATCC 29213 was carried out in a 96-well turbidimetric assay as described previously.

E. coli ATCC 25922 = test: Antibacterial activity, 96-well turbidimetric assay, E. coli; type: cell-based, Escherichia coli
Protocol: as §1, §2

[2] = target: T1, Fibrinogen (human plasma) (Homo sapiens, UniProt P02671+P02675+P02679); test: Surface plasmon resonance (BIAcore 3000), immobilized SlpA binding to fibrinogen; details: from binding constants
T1 construct: Fibrinogen (human plasma) was obtained from Calbiochem; purchased Calbiochem; host or cells: human plasma
T1 sequence (P02671 20-644 isoform P02671-2 limits assumed): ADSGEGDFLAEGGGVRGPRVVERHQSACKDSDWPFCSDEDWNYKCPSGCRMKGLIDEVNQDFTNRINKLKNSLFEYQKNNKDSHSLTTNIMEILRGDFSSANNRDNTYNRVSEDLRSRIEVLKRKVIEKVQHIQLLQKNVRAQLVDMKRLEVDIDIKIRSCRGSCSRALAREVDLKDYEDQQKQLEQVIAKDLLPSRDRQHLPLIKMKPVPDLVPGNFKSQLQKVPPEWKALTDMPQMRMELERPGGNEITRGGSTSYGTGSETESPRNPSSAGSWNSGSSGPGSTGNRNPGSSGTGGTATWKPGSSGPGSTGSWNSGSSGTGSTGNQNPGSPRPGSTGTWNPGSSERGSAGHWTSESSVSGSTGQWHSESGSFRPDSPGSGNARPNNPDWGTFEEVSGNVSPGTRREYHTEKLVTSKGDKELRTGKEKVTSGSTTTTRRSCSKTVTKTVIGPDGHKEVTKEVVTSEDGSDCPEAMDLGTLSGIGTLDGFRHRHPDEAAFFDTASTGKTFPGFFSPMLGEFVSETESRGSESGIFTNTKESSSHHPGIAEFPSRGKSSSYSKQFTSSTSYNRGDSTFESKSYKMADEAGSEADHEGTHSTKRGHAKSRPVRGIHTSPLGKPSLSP
T1 sequence (P02675 31-491): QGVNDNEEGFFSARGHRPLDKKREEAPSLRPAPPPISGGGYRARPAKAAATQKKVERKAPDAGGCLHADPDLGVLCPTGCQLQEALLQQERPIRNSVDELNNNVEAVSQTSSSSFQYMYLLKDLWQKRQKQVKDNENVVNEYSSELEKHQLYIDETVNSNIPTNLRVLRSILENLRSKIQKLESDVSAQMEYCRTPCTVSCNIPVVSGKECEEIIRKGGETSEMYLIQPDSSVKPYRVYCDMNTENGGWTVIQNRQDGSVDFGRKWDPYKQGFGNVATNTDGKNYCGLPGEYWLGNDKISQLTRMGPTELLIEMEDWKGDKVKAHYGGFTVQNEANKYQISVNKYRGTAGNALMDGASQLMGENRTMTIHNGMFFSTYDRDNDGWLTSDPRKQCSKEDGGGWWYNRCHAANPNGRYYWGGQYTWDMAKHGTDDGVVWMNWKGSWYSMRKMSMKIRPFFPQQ
T1 sequence (P02679 27-437 isoform P02679-2 limits assumed): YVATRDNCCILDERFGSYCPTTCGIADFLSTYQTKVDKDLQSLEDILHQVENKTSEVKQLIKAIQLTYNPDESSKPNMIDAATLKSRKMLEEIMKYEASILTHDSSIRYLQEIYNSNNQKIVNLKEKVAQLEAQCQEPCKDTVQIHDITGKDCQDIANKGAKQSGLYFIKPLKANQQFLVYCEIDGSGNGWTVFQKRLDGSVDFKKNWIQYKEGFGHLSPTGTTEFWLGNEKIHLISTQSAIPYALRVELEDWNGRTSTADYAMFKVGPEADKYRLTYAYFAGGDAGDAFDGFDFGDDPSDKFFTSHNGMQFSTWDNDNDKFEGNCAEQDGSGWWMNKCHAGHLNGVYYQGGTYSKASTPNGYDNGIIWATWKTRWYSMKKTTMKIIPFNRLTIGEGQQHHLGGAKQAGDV
Protocol: The interaction between SlpA and extracellular matrix components was evaluated by surface plasmon resonance on a BIAcore 3000 instrument. Purified SlpA protein in 5M LiCl was dialyzed against double-distilled water overnight. Monomeric and/or oligomeric protein was separated from self-assembled material by centrifugation at 20,000×g for 20 min. SlpA protein (50 ug/ml in 10 mM Sodium Phosphate pH 7.4) was covalently coupled to CM5 carboxylated dextran chips using N-hydroxysuccinimide (NHS) chemistry. Uncoupled NHS-ester groups were blocked with 1M Ethanolamine, resulting in the coupling of about 1700 resonance units (RU's) to the chip. […] Binding was determined experimentally by comparing the number of RU's observed as a function of time to an activated and blocked flow cell containing no linked protein. […] Data were evaluated using the BIAevaluation 4.1 software. […] The equilibrium constant for the fibronectin+benzamidine experiment was calculated using steady-state kinetics.
To examine the binding properties of SlpA to the extracellular matrix proteins fibronectin, laminin, fibrinogen and collagen in detail, surface plasmon resonance was used. […] The association and dissociation rate constants were estimated from the binding data at different concentrations using the BIAevaluation software and from these values the binding constant was calculated (Table 2). […]

[3] = target: Fibronectin (human plasma); test: Surface plasmon resonance (BIAcore 3000), immobilized SlpA binding to fibronectin
Protocol: (§3) The interaction between SlpA and extracellular matrix components was evaluated by surface plasmon resonance on a BIAcore 3000 instrument. Purified SlpA protein in 5M LiCl was dialyzed against double-distilled water overnight. Monomeric and/or oligomeric protein was separated from self-assembled material by centrifugation at 20,000×g for 20 min. SlpA protein (50 ug/ml in 10 mM Sodium Phosphate pH 7.4) was covalently coupled to CM5 carboxylated dextran chips using N-hydroxysuccinimide (NHS) chemistry. Uncoupled NHS-ester groups were blocked with 1M Ethanolamine, resulting in the coupling of about 1700 resonance units (RU's) to the chip. Kinetic analysis was carried out at 25° C. in 10 mM HEPES, 150 mM NaCl, 3 mM EDTA, 0.005% surfactant P20, pH 7.4. Fibronectin, laminin, fibrinogen and collagen were treated according to manufacturer's instructions and injected at indicated concentrations at a flow rate of 20 ul/min over each flow cell. Binding was determined experimentally by comparing the number of RU's observed as a function of time to an activated and blocked flow cell containing no linked protein. Non-specific binding to the control flow cell appeared insignificant. Data were evaluated using the BIAevaluation 4.1 software. The association and dissociation data were modeled with the BIAevaluation 4.1 software (Pharmacia Biosensor AB). Following subtraction of data from the control flow cell, the binding data produced for the various protein concentrations were fitted simultaneously, assuming the 1:1 Langmuir model. The equilibrium constant for the fibronectin+benzamidine experiment was calculated using steady-state kinetics.
(§4) To examine the binding properties of SlpA to the extracellular matrix proteins fibronectin, laminin, fibrinogen and collagen in detail, surface plasmon resonance was used. […] The association and dissociation rate constants were estimated from the binding data at different concentrations using the BIAevaluation software and from these values the binding constant was calculated (Table 2). […] In addition, the interaction between SlpA and the ECN components fibrinogen and collagen was studied.

[4] = target: T2, Laminin (basement membrane of Engelbreth-Holm-Swarm mouse sarcoma) (Mus musculus, UniProt P02468+P02469+P19137); test: Surface plasmon resonance (BIAcore 3000), immobilized SlpA binding to laminin
T2 construct: Laminin (basement membrane of Engelbreth-Holm-Swarm mouse sarcoma); purchased Sigma; host or cells: Engelbreth-Holm-Swarm mouse sarcoma basement membrane
Protocol: as §3, §4

[5] = target: T3, Collagen (human placenta Type IV) (Homo sapiens, UniProt P02462+P08572); test: Surface plasmon resonance (BIAcore 3000), immobilized SlpA binding to collagen
T3 construct: purchased Sigma; host or cells: human placenta
Protocol: as §3, §4

[6] = peptide 0.12 to 125 μg/ml, 2 hour incubation
[7] = fibronectin to immobilized SlpA

T3 sequence (P02462 173-1669): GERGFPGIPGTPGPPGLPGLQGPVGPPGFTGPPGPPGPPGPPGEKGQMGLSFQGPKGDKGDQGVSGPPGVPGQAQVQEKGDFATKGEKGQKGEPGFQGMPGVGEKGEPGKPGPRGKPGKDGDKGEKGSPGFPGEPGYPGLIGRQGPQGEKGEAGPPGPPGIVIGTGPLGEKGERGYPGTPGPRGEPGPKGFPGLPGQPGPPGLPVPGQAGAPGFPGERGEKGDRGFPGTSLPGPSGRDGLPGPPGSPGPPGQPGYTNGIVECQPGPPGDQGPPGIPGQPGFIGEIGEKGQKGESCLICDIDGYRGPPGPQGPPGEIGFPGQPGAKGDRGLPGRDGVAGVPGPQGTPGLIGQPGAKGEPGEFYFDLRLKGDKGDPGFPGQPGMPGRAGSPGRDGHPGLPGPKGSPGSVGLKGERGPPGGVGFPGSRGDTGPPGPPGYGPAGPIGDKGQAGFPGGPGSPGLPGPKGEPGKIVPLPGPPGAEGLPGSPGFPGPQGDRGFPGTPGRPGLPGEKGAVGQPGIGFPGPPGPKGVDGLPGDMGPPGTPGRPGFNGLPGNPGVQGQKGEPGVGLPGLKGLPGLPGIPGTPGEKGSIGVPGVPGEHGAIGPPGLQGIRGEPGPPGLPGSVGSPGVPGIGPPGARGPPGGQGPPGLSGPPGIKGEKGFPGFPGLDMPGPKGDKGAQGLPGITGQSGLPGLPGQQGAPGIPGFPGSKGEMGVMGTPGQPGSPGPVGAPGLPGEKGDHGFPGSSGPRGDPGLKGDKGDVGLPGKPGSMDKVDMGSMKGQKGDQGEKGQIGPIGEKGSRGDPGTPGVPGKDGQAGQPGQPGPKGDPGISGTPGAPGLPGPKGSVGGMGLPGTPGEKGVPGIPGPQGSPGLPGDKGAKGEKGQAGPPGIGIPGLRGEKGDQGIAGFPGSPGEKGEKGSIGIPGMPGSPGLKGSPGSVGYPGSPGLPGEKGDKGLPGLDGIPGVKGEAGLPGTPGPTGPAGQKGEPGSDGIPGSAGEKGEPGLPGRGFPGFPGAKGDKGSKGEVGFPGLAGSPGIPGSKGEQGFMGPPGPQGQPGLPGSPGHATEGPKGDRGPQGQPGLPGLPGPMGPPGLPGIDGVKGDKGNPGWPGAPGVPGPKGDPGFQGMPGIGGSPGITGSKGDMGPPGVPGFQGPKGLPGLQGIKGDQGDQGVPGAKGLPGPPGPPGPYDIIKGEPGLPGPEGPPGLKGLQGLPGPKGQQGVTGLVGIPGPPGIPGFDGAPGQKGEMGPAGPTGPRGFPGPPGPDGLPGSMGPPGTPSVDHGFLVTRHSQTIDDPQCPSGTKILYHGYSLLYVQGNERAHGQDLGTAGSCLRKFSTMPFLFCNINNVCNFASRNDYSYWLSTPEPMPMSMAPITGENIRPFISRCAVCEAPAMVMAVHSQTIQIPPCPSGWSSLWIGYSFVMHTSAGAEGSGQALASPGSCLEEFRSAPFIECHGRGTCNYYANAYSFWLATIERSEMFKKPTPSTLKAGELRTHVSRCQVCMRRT
T3 sequence (P08572 184-1712): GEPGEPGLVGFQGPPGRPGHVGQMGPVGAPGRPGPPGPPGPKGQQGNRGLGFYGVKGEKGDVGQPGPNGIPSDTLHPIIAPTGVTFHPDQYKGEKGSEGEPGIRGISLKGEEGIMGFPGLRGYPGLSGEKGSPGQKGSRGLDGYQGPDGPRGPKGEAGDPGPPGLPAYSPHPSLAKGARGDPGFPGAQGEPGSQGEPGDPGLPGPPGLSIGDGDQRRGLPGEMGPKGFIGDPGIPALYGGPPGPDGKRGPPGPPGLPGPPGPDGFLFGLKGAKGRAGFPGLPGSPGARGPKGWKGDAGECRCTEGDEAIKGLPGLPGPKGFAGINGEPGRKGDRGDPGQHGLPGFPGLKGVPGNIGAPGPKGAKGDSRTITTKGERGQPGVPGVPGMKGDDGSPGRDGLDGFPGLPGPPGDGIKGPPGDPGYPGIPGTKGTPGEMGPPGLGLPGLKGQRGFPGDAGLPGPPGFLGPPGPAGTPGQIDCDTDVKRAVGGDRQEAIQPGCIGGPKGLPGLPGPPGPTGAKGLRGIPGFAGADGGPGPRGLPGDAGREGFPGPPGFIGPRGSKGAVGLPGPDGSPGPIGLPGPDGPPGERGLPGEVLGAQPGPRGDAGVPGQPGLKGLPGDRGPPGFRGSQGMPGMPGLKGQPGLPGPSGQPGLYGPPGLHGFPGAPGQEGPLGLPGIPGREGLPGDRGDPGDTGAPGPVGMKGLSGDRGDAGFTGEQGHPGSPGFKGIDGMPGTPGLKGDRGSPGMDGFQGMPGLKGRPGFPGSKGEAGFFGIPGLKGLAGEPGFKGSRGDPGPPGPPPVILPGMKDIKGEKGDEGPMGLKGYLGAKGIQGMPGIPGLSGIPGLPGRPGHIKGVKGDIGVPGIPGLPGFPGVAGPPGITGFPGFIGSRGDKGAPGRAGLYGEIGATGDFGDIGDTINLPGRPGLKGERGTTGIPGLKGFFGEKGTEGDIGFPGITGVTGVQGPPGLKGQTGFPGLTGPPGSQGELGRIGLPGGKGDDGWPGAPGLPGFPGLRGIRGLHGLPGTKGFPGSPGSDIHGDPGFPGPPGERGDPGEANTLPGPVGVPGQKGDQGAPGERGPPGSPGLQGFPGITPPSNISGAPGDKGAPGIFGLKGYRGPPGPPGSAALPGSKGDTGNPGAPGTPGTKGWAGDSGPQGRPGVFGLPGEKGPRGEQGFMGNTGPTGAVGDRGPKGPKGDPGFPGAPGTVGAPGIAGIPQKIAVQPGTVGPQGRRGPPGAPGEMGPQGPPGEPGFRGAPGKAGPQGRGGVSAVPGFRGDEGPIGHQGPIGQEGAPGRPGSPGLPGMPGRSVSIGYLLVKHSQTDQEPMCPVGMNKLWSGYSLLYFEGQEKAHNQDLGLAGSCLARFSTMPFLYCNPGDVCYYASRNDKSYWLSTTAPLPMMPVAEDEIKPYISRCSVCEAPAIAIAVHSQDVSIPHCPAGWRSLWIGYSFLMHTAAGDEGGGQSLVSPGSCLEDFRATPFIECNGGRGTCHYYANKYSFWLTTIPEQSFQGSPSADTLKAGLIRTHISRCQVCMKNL

TNFα [reference compound]
IL-8 secretion increase relative to the control ([1]; TNFα 100 ng/ml alone): ~10 fold

B1: HD-5α: human α-defensin 5, chemically synthesized and folded, three intra-molecular disulfide bonds (peptide, UniProt Q01523 20-94, looked up)
Defensin alpha 5: ESLQERADEATTQKQSGEDNQDLAISFAGNGLSALRTSGSQARATCYCRTGRCATRESLSGVCEISGRLYRLCCR
modifications: Defensin-5
notes: human α-defensin 5, chemically synthesized and folded, three intra-molecular disulfide bonds
IL-8 levels increase compared to control cells ([1]; peptide 100 ug/ml, serum-free medium): ~10 fold
induction of IL-8 secretion ([1]; peptide 50 and 100 ug/ml): dose-dependent
antibacterial activity against S. aureus at highest salt concentration (S. aureus ATCC 29213; peptide 50 ug/ml, 100 mM sodium chloride): still significantly toxic
antimicrobial activity (killing) against S. aureus (S. aureus ATCC 29213; [6]): efficiently killed
antibacterial activity against E. coli at highest salt concentration (E. coli ATCC 25922; peptide 100 ug/ml, 100 mM sodium chloride): almost completely inhibited
antimicrobial activity (killing) against E. coli (E. coli ATCC 25922; [6]): efficiently killed

B2: SlpA: Surface layer (S-layer) protein purified from Lactobacillus brevis ATCC 8287 by 5M LiCl extraction and gel filtration (protein)
chain: KSYATAGAYSTLKTDAATRNVEATGTNALYTKPGTVKGAKVVASKATMAKLASSKKSADYFRAYGVKTTNRGSVYYRVVTMDGKYRGYVYGGKSDTAFAGGIKSAETTTKADMPARTTGFYLTDTSKNTLWTAPKYTQYKASKVSLYGVAKDTKFTVDQAATKTREGSLYYHVTATNGSGISGWIYAGKGFSTTATGTQVLGGLSTDKSVTATNDNSVKIVYRTTDGTQVGSNTWVTSTDGTKAGSKVSDKAADQTALEAYINANKPSGYTVTNPNAADATYGNTVYATVSQAATSKVALKVSGTPVTTALTTADANDKVAANDTTANGSSVAGSTVYAAGTKLAQLTTDLTGEKGQVVTLTAIDTDLEDATFTGTTTYYSDLGKAYHYTYTYNKDSAASSNASTQFGSNVTGTLTATLVMGKSTATANGTTWFN
binding affinity for fibrinogen compared with affinity for fibronectin and laminin [2]: three orders of magnitude less
Kd ([3]; fibronectin + benzamidine (SlpA preincubated with 1 mM benzamidine), steady-state kinetics): 30.1 µM
ka × 10^3 [3, 7]: 7.04 × 10^3
kd × 10^−3 (s^−1) [3, 7]: 6.32 × 10^−3 s^−1
Kd ([3]; fibronectin to immobilized SlpA, 25° C., 1:1 Langmuir model): 0.0899 µM and 0.0898 µM
affinity of SlpA to bind laminin compared with fibronectin ([4]; from calculated Kd values): three-fold higher affinity
ka × 10^3 ([4]; laminin + benzamidine (1 mM)): 3.03 × 10^3
kd × 10^−3 (s^−1) ([4]; laminin + benzamidine (1 mM)): 2 × 10^−3 s^−1
ka × 10^3 ([4]; laminin to immobilized SlpA): 4.89 × 10^3
kd × 10^−3 (s^−1) ([4]; laminin to immobilized SlpA): 1.3 × 10^−3 s^−1
Kd ([5]; collagen to immobilized SlpA): 31.8 µM
ka × 10^3 ([5]; collagen to immobilized SlpA): 3.47 × 10^3
kd × 10^−3 (s^−1) ([5]; collagen to immobilized SlpA): 1.1 × 10^−3 s^−1
binding affinity for collagen compared with affinity for fibronectin and laminin ([5]; from binding constants): three orders of magnitude less
